# According to the supplement of paper PMC10126150:
# ± gives the standard deviation of the averaged measurements.
# System: ATP
# Experiment: switch fluorescence ratio, 500 uM ATP over buffer (Cy3 cluster intensity, sum of 5 cycles each) (fold (ratio)); higher = stronger signal-on switching upon ATP binding; sequences stand for … in TCGTCGGCAGCGTCAGATGTGTATAAGAGACAGTTTTTTTTTTTTTTTTTTTTTTTTT…TC
# Conditions: aptamer strand: ATP DNA aptamer (quencher-CACCTGGGGGAGTATTGCGGAGGAAGG + anchor), 100 nM annealed; ATP concentration: 500 uM
# Summary of the method: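 The fluorescence ratio divides summed target-cycle Cy3 intensity by summed buffer-cycle Cy3 intensity for each cluster and is averaged per switch-domain sequence. Cy3-labelled switching-strand clusters on a modified Illumina MiSeq flow-cell were annealed to 100 nM quencher-labelled ATP aptamer, then imaged in selection buffer and again after 15 min with 500 uM ATP at 22 °C. Five such cycles were run, with NaOH stripping and re-annealing between them, and clusters outside 100-1000 RFU were excluded.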
# 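Further: ATP exposure 15 min at 22 °C before imaging.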
row,Sequence,switch fluorescence ratio
1,CCGGTTATGA,1.04 ± 0.02
2,TTAGTGAAGT,1 ± 0.011
3,AGGATGGTTA,0.968 ± 0.076
4,GGTTCCGTGG,0.994 ± 0.023
5,CCGGTTGCAT,4.54 ± 1.9
6,TTGCGATATT,1.27 ± 0.36
7,CGTTGGGGTT,1.02 ± 0.036
8,AATAGGGTTA,1 ± 0.045
9,CCATTTGAGA,0.998 ± 0.022
10,TGATGATATG,0.9929 ± 0.0094
11,CAAGTCAGTA,0.991 ± 0.025
12,CCATTAATCT,1.34 ± 0.46
13,TTTAAGGATT,1.21 ± 0.33
14,TTTCTTAGGT,1.03 ± 0.014
15,TTAGCTCATT,1 ± 0.02
16,CTACGGGATT,1.33 ± 0.43
17,TAGCATTTTT,1.07 ± 0.14
18,AAGGGAGCTG,1.02 ± 0.15
19,GGGGTGGTGG,0.9888 ± 0.007
20,GCCCGTTACG,1.02 ± 0.055
21,CTGTAAGGTT,1.09 ± 0.14
22,GGGTGTGCTT,1.04 ± 0.029
23,GGTTATGCGG,1.01 ± 0.046
24,GGGTTGTTTC,0.973 ± 0.027
25,TTTTCATTAC,1.26 ± 0.069

row,Sequence,switch fluorescence ratio
1,CGCTTACTTT,1.24 ± 0.021
2,AATTTGGTTA,0.995 ± 0.045
3,GGGGGGTAGT,1.02 ± 0.067
4,TCGTTATTCT,1.04 ± 0.067
5,CGGGGCAGCG,1.02 ± 0.042
6,TGGGGGGGCC,0.968 ± 0.0076
7,CATGGTACGC,1.055 ± 0.0043
8,TATGGATTGG,0.977 ± 0.029
9,TGGGGTACTT,0.973 ± 0.027
10,TTAGAAAGCA,1 ± 0.033
11,ATCGGGGGAA,1.05 ± 0.062
12,CCAGTGTATA,1.002 ± 0.0013
13,GCCTATTTTG,0.962 ± 0.07
14,AAATGACAGC,1.06 ± 0.037
15,CATTCGTTTC,1.15 ± 0.05
16,AGGGGGGTGA,1.017 ± 0.0015
17,TTGAGATACG,1.001 ± 0.0057
18,CGGTAGTTAC,1.25 ± 0.059
19,TCGAGTAGGG,0.995 ± 0.016
20,GCTCATGAAT,1 ± 0.023
21,TTTTAACTAA,1.005 ± 0.0046
22,GGAAGAGGAG,0.983 ± 0.014
23,ATAGGGATGG,0.9829 ± 0.0035
24,ATTATTTGTC,1.01 ± 0.044
25,ATGTCGGCTT,1.03 ± 0.018

row,Sequence,switch fluorescence ratio
1,ATTGAAAAAG,1.01 ± 0.025
2,GACAGGTGAA,2.27 ± 0.041
3,GGGTCTTTGT,0.981 ± 0.026
4,TTGATTTGTG,0.997 ± 0.012
5,GTTAATTATT,1.06 ± 0.085
6,TCGGGGCGAG,1.02 ± 0.023
7,GTAATCGCAA,2.65 ± 0.15
8,TAGTCATTCA,0.981 ± 0.026
9,GTATGAATGT,0.985 ± 0.03
10,GAAAGCCTTT,1 ± 0.012
11,GAACGGCCGG,1.004 ± 0.0092
12,AAAAAATTAG,0.996 ± 0.05
13,TAGCTATGTG,0.982 ± 0.038
14,AAGATTATGG,0.984 ± 0.035
15,ATAGTCGCGC,0.993 ± 0.058
16,AAGGGAATTA,0.986 ± 0.015
17,GCTGTGAGTT,0.9821 ± 0.006
18,GGGGATTAAT,0.99 ± 0.042
19,GGGGGCCGGG,1.01 ± 0.052
20,TTATAAGTGG,0.9907 ± 0.0072
21,AAGCGTTGTA,1.01 ± 0.02
22,AGGGGCACAA,1.01 ± 0.024
23,TTGGCAAAGG,1.1 ± 0.19
24,TAAATAGTGG,0.987 ± 0.013
25,GACGATGTAA,1.18 ± 0.018

row,Sequence,switch fluorescence ratio
1,AAGGGCGCAG,0.993 ± 0.056
2,GATAAGTCAG,0.989 ± 0.018
3,TTTGAAAGTT,1.01 ± 0.015
4,ATTTTAGGGT,0.989 ± 0.022
5,CTGCGGTAAA,0.96953 ± 0.00082
6,ACTCGCAGGG,1.073 ± 0.0016
7,TTACGAGTGG,1.02 ± 0.025
8,GCATAGCGCC,1.04 ± 0.013
9,TTTTTTTTCA,1.01 ± 0.053
10,AGTGTGGGGG,1.01 ± 0.029
11,TATCGTCGGG,1.008 ± 0.0064
12,TACGTTGGGG,1 ± 0.028
13,GGGGGGACTA,1.03 ± 0.031
14,TTTCGTGTGT,0.97 ± 0.0097
15,GGGGAGTTAC,1.35 ± 0.44
16,GGGTTTTACA,0.9813 ± 0.0029
17,AGGAATCCGT,1.03 ± 0.022
18,GGCGGTTACT,1.04 ± 0.015
19,TGTCCTAAAA,1.05 ± 0.04
20,TCTCTTCAGC,1 ± 0.0026
21,GCTGGATTGC,0.916 ± 0.048
22,CCATAACGGG,0.97548 ± 0.0008
23,GCTAGTCTGA,0.9954 ± 0.0019
24,ATTAAATCCG,1.042 ± 0.0099
25,TTAATGTGCG,1.01 ± 0.023
